Data published in patent US20260022175A1 (Chugai, published 2026).

Key:
human CTLA4 [1] = biological target: T1, human CTLA4 (human); assay: SPR Biacore T200, 37C, antibody captured, ADP 10 uM;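 further: antibodies held on a Protein G CM3 chip, human CTLA4 as analyte in ACES pH 7.4 buffer, rates from a global 1:1 Langmuir fit, Kd from rates or steady state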
T1 construct: also called hCTLA4; hCTLA4-His-BAP
Method: (§1) Biacore T200 was used to measure the binding of the generated antibodies to human CTLA4. 20 mM ACES (pH 7.4), 150 mM NaCl, 2 mM MgCl₂, 0.05% Tween 20 with ATP added to the desired concentration was used as the running buffer, and the assay was performed at 37° C. First, Protein G (CALBIOCHEM) was immobilized onto a Series S Sensor Chip CM3 (GE Healthcare), and the antibodies were captured by interacting an antibody solution prepared in an ATP-free running buffer with the chip. Next, by interacting with a human CTLA4 solution prepared in a running buffer containing ATP to the desired concentration, or a human CTLA4 solution prepared in a running buffer containing no ATP, the binding ability of the antibody to human CTLA4 in the presence or absence of ATP was evaluated. Chips were regenerated with 25 mM NaOH and 10 mM Glycine-HCl (pH 1.5), and assay was performed by repeatedly capturing antibodies. The dissociation constant of each antibody for CTLA4 was calculated using Biacore T200 Evaluation Software 2.0. Specifically, the binding rate constant ka (L/mol/s) and the dissociation rate constant kd (1/s) were calculated by global fitting of the sensorgrams obtained by the measurement, using a 1:1 Langmuir binding model. The dissociation constant KD (mol/L) was calculated from those values. Alternatively, the dissociation constant KD (mol/L) was calculated by the steady state model. In addition, the binding amount of CTLA4 per unit amount of antibody was calculated by correcting the amount of CTLA4 bound as calculated from the sensorgram obtained by the assay with the amount of antibody captured onto the chip surface.
(§2) The binding ability of the generated variants to human CTLA4 in the presence of ADP or AMP was evaluated by Biacore T200 and compared with the binding ability in the presence of ATP.

human CTLA4 [2] = biological target: T1, human CTLA4; assay: SPR Biacore T200, 37C, antibody captured, ATP 10 uM
human CTLA4 [3] = biological target: T1, human CTLA4; assay: SPR Biacore T200, 37C, antibody captured, ATP 1 uM
human CTLA4 [4] = biological target: T1, human CTLA4; assay: SPR Biacore T200, 37C, antibody captured, no ATP, steady state model
Method: Biacore T200 was used to measure the binding of the generated antibodies to human CTLA4. 20 mM ACES (pH 7.4), 150 mM NaCl, 2 mM MgCl₂, 0.05% Tween 20 with ATP added to the desired concentration was used as the running buffer, and the assay was performed at 37° C. First, Protein G (CALBIOCHEM) was immobilized onto a Series S Sensor Chip CM3 (GE Healthcare), and the antibodies were captured by interacting an antibody solution prepared in an ATP-free running buffer with the chip. Next, by interacting with a human CTLA4 solution prepared in a running buffer containing ATP to the desired concentration, or a human CTLA4 solution prepared in a running buffer containing no ATP, the binding ability of the antibody to human CTLA4 in the presence or absence of ATP was evaluated. Chips were regenerated with 25 mM NaOH and 10 mM Glycine-HCl (pH 1.5), and assay was performed by repeatedly capturing antibodies. The dissociation constant of each antibody for CTLA4 was calculated using Biacore T200 Evaluation Software 2.0. Specifically, the binding rate constant ka (L/mol/s) and the dissociation rate constant kd (1/s) were calculated by global fitting of the sensorgrams obtained by the measurement, using a 1:1 Langmuir binding model. The dissociation constant KD (mol/L) was calculated from those values. Alternatively, the dissociation constant KD (mol/L) was calculated by the steady state model.

human CTLA4 [5] = biological target: T1, human CTLA4; assay: SPR Biacore T200, 37C, antibody captured, ATP 10 uM; remark: listed apart in the source
human CTLA4 [6] = biological target: T1, human CTLA4; assay: SPR Biacore T200, 37C, antibody captured, AMP 10 uM
Method: as §1, §2

human CTLA4 [7] = biological target: T1, human CTLA4; assay: SPR Biacore T200, 37C, antibody captured, ATP 100 uM
Method: as §1
(§3) Next, the binding ability of some variants to mouse CTLA4 and cynomolgus monkey CTLA4 was evaluated.

[8] = biological target: T2, cynomolgus monkey CTLA4 (CyCTLA4-His-BAP) (cynomolgus monkey); assay: as above
Method: as §1, §3

human CTLA4 [9] = biological target: T1, human CTLA4; assay: SPR Biacore T200, 37C, antibody captured, ATP 1 uM; remark: listed apart in the source
[10] = biological target: T2, cynomolgus monkey CTLA4 …; assay: SPR Biacore T200, 37C, antibody captured, ATP 1 uM
human CTLA4 [11] = biological target: T1, human CTLA4; assay: SPR Biacore T200, 37C, antibody captured, ATP 10 uM; remark: listed apart in the source
Method: as §1, §3

[12] = biological target: T2, cynomolgus monkey CTLA4 …; assay: as above
Method: as §1, §3

[13] = biological target: T3, human C1q protein (Calbiochem) (human, UniProt P02745 23-245; P02746 28-253; P02747 29-245); assay: ELISA: antibody coated on the plate at the varied concentration, hC1q 3 µg/mL added, detected with HRP-conjugated anti-hC1q antibody, O.D (450-690nm)
T3 construct: bought; also called hC1q
T3 sequence (P02745 23-245 limits assumed, chain 1 of 3): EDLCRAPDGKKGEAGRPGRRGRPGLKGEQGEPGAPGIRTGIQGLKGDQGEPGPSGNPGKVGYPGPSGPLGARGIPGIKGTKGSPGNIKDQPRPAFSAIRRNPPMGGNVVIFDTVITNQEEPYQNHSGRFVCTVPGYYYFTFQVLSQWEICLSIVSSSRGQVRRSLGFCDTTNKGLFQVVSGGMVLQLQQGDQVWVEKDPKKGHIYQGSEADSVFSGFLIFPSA
T3 sequence (P02746 28-253 limits assumed, chain 2 of 3): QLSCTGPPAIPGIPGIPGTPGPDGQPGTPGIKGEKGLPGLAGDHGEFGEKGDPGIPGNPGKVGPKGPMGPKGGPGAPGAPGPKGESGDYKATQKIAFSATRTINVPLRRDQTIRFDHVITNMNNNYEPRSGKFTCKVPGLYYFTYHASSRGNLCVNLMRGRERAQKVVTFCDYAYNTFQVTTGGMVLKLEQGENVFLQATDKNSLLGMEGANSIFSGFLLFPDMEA
T3 sequence (P02747 29-245 limits assumed, chain 3 of 3): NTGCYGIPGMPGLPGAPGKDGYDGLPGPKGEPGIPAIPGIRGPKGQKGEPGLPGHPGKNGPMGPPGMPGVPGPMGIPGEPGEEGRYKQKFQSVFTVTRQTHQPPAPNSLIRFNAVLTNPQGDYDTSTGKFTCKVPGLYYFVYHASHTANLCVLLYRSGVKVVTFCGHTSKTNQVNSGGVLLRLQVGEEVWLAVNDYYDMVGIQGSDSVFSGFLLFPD
Method: The antigen used was a human C1q protein (hC1q).
First, a 96-well maxisorp plate (Thermo fisher) was coated at 4° C. overnight with 50 μL of solutions containing each antibody prepared at 30, 10, 3, 1, 0.3, 0.1, and 0.03 μg/mL in PBS. Each well of the plate was washed with Wash buffer to remove the antibody not bound to the plate, and then the wells were blocked with 200 μL of Blocking/dilution Buffer at room temperature for 2 hours or longer. After the Blocking/dilution Buffer was removed from each well, hC1q (Calbiochem) prepared such that the final concentration was 3 μg/mL in Blocking/dilution Buffer was added at 50 μL per well. The plate was then allowed to stand at room temperature for 1 hour to allow hC1q to bind to the antibody within each well. After washing with Wash Buffer, 50 μL of an HRP-conjugated anti-hC1q antibody (AbDSerotec) diluted with Blocking/dilution Buffer was added to each well, and the plate was incubated while standing for 1 hour. After washing with Wash Buffer, TMB single solution (Invitrogen) was added. The color development reaction of the solution in each well was stopped by addition of Stop Buffer, and then the developed color was measured by absorbance at 450 nm and 690 nm.

T1 sequence (chain, as listed by the source limits assumed): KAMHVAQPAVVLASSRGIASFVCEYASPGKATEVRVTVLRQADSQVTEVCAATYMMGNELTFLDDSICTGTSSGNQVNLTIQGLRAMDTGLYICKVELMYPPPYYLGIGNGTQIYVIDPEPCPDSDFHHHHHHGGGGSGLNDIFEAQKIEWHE
T2 sequence (chain, as listed by the source limits assumed): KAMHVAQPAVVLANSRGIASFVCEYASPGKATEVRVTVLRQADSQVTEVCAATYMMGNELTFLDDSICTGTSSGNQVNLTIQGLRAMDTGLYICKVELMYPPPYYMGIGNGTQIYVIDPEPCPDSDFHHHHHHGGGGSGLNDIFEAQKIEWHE

B1: 04H1656-G1m/04L1612-lam1 (antibody, human IgG1, lambda)
heavy: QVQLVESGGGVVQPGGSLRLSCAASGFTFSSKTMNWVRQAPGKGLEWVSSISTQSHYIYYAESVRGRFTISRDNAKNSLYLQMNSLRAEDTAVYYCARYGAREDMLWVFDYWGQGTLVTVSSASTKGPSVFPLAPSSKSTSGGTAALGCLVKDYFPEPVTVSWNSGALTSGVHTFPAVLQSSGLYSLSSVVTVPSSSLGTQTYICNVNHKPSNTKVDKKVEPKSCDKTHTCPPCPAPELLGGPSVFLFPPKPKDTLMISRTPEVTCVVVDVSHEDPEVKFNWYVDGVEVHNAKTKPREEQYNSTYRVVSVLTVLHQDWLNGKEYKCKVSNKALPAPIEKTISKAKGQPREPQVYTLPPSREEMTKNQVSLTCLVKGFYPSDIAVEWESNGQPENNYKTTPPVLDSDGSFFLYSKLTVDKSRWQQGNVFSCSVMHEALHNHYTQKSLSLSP
light: QSALTQPPSASGSPGQSVTISCEGPSTGVGDYTYVHWYQQHPGKAPKLMIYFTSKKPSGVPDRFSGSKSGNTASLTVSGLQAEDEADYYCQTYAAPLGPMFGGGTKLTVLGQPKAAPSVTLFPPSSEELQANKATLVCLISDFYPGAVTVAWKADSSPVKAGVETTTPSKQSNNKYAASSYLSLTPEQWKSHRSYSCQVTHEGSTVEKTVAPTECS
Kd (human CTLA4 [1]): 42 nM
koff (human CTLA4 [1]): 0.0064 s⁻¹
kon (human CTLA4 [1]): 150000 M⁻¹ s⁻¹
Kd (human CTLA4 [2]): 32 nM
Kd (human CTLA4 [3]): 160 nM
Kd (human CTLA4 [4]): 7600 nM
Kd (human CTLA4 [5]): 26 nM
koff (human CTLA4 [5]): 0.0029 s⁻¹
kon (human CTLA4 [5]): 110000 M⁻¹ s⁻¹
Kd (human CTLA4 [6]): 130 nM
koff (human CTLA4 [6]): 0.02 s⁻¹
kon (human CTLA4 [6]): 150000 M⁻¹ s⁻¹
Kd (human CTLA4 [7]): 7.8 nM
Kd [8]: 16 nM
Kd (human CTLA4 [9]): 95 nM
Kd [10]: 160 nM
Kd (human CTLA4 [11]): 25 nM
Kd [12]: 41 nM

B2: EGL-G4d (antibody, human IgG4 S228P, kappa)
heavy: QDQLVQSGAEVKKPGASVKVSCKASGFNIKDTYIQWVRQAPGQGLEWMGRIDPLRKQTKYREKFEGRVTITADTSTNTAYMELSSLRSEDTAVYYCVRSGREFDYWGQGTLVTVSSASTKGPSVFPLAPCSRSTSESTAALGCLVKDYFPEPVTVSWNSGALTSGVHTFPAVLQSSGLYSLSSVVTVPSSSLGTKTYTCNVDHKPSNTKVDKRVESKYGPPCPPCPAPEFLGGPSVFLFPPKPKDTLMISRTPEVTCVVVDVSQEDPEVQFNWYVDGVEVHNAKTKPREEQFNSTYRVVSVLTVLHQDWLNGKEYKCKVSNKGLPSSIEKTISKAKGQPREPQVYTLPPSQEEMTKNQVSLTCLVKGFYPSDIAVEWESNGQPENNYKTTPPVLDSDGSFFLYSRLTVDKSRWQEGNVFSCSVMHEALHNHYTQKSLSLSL
light: DIQMTQSPSSLSASVGDRVTITCRASQDIHKYIAWYQQKPGQAPRLLIQYTSTLQPGVPSRFSGSGSGTDYTFTISSLQPEDIATYYCLQYEQLRTFGGGTKVEIKRTVAAPSVFIFPPSDEQLKSGTASVVCLLNNFYPREAKVQWKVDNALQSGNSQESVTEQDSKDSTYSLSSTLTLSKADYEKHKVYACEVTHQGLSSPVTKSFNRGEC
binding result [13]: no binding (tested: 30 µg/mL)
